Measurements: IntAct's records for PubMed 23850456

B1: Gremlin-2 (Mus musculus), O88273 (parent)
chain: MFWKLSLTLLLVAVLVKVAETRKNRPAGAIPSPYKDGSSNNSERWHHQIKEVLASSQEALVVTERKYLKSDWCKTQPLRQTVSEEGCRSRTILNRFCYGQCNSFYIPRHVKKEEDSFQSCAFCKPQRVTSVIVELECPGLDPPFRIKKIQKVKHCRCMSVNLSDSDKQ
partner: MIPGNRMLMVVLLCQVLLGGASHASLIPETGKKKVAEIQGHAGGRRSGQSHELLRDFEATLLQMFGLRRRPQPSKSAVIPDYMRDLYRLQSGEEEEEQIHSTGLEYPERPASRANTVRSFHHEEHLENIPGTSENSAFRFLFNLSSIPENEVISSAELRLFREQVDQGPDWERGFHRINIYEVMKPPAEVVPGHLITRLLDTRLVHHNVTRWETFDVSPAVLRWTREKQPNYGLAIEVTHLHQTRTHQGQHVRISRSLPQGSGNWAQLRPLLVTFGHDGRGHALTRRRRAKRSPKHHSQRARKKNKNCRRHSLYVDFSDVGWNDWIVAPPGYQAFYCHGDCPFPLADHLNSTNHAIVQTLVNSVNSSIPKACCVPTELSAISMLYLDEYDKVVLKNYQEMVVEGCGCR
B2: Gremlin-2 (Mus musculus), O88273 (parent)
chain: B1 chain
partner: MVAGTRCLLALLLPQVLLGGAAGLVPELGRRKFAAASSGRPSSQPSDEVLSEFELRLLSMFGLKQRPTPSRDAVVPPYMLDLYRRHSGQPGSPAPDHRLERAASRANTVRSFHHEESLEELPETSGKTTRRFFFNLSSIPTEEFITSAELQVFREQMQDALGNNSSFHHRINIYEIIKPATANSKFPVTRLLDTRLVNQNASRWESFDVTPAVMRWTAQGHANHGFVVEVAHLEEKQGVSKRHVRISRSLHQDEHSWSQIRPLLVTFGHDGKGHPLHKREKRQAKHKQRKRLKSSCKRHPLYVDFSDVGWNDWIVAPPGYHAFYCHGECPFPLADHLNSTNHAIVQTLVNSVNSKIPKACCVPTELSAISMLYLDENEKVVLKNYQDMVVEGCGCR

Variants of: B1
Details: with bmp4_human BMP4, P12644

Variant | effect of a mutation on the interaction
MFWKLSLTLLLVAVLVKVAETRKNRPAGAIPSPYKDGSSNNSERWHHQIKEVLASSQEALVVTERKYLKSDWCKTQPLRQTVSEEGCRSRTILNRFCAGQCNSFYIPRHVKKEEDSFQSCAFCKPQRVTSVIVELECPGLDPPFRIKKIQKVKHCRCMSVNLSDSDKQ [Y98A] | decreasing interaction strength
MFWKLSLTLLLVAVLVKVAETRKNRPAGAIPSPYKDGSSNNSERWHHQIKEVLASSQEALVVTERKYLKSDWCKTQPLRQTVSEEGCRSRTILNRFCYGQCNSFYIPRHVKKEEDSAQSCAFCKPQRVTSVIVELECPGLDPPFRIKKIQKVKHCRCMSVNLSDSDKQ [F117A] | decreasing interaction strength
MFWKLSLTLLLVAVLVKVAETRKNRPAGAIPSPYKDGSSNNSERWHHQIKEVLASSQEALVVTERKYLKSDWCKTQPLRQTVSEEGCRSRTILNRFCYGQCNSAYIPRHVKKEEDSFQSCAFCKPQRVTSVIVELECPGLDPPFRIKKIQKVKHCRCMSVNLSDSDKQ [F104A] | decreasing interaction strength
MFWKLSLTLLLVAVLVKVAETRKNRPAGAIPSPYKDGSSNNSERWHHQIKEVLASSQEALVVTERKYLKSDWCKTQPLRQTVSEEGCRSRTILNRFCYGQCNSFAIPRHVKKEEDSFQSCAFCKPQRVTSVIVELECPGLDPPFRIKKIQKVKHCRCMSVNLSDSDKQ [Y105A] | decreasing interaction strength
MFWKLSLTLLLVAVLVKVAETRKNRPAGAIPSPYKDGSSNNSERWHHQIKEVLASSQEALVVTERKYLKSDACKTQPLRQTVSEEGCRSRTILNRFCYGQCNSFYIPRHVKKEEDSFQSCAFCKPQRVTSVIVELECPGLDPPFRIKKIQKVKHCRCMSVNLSDSDKQ [W72A] | decreasing interaction strength

Variants of: B2
Details: with bmp2_human BMP2, P12643

Variant | effect of a mutation on the interaction
MFWKLSLTLLLVAVLVKVAETRKNRPAGAIPSPYKDGSSNNSERWHHQIKEVLASSQEALVVTERKYLKSDWCKTQPLRQTVSEEGCRSRTILNRFCYGQCNSAYIPRHVKKEEDSFQSCAFCKPQRVTSVIVELECPGLDPPFRIKKIQKVKHCRCMSVNLSDSDKQ [F104A] | decreasing interaction strength
MFWKLSLTLLLVAVLVKVAETRKNRPAGAIPSPYKDGSSNNSERWHHQIKEVLASSQEALVVTERKYLKSDACKTQPLRQTVSEEGCRSRTILNRFCYGQCNSFYIPRHVKKEEDSFQSCAFCKPQRVTSVIVELECPGLDPPFRIKKIQKVKHCRCMSVNLSDSDKQ [W72A] | decreasing interaction strength
MFWKLSLTLLLVAVLVKVAETRKNRPAGAIPSPYKDGSSNNSERWHHQIKEVLASSQEALVVTERKYLKSDWCKTQPLRQTVSEEGCRSRTILNRFCYGQCNSFAIPRHVKKEEDSFQSCAFCKPQRVTSVIVELECPGLDPPFRIKKIQKVKHCRCMSVNLSDSDKQ [Y105A] | decreasing interaction strength
MFWKLSLTLLLVAVLVKVAETRKNRPAGAIPSPYKDGSSNNSERWHHQIKEVLASSQEALVVTERKYLKSDWCKTQPLRQTVSEEGCRSRTILNRFCAGQCNSFYIPRHVKKEEDSFQSCAFCKPQRVTSVIVELECPGLDPPFRIKKIQKVKHCRCMSVNLSDSDKQ [Y98A] | decreasing interaction strength
MFWKLSLTLLLVAVLVKVAETRKNRPAGAIPSPYKDGSSNNSERWHHQIKEVLASSQEALVVTERKYLKSDWCKTQPLRQTVSEEGCRSRTILNRFCYGQCNSFYIPRHVKKEEDSAQSCAFCKPQRVTSVIVELECPGLDPPFRIKKIQKVKHCRCMSVNLSDSDKQ [F117A] | decreasing interaction strength
